Test results: publication doi:10.1101/2024.04.26.591323

Legend:
[1] = target: T1, TG2 (transglutaminase 2), tag-free (Homo sapiens, UniProt P21980 1-687); assay: BLI
T1 sequence: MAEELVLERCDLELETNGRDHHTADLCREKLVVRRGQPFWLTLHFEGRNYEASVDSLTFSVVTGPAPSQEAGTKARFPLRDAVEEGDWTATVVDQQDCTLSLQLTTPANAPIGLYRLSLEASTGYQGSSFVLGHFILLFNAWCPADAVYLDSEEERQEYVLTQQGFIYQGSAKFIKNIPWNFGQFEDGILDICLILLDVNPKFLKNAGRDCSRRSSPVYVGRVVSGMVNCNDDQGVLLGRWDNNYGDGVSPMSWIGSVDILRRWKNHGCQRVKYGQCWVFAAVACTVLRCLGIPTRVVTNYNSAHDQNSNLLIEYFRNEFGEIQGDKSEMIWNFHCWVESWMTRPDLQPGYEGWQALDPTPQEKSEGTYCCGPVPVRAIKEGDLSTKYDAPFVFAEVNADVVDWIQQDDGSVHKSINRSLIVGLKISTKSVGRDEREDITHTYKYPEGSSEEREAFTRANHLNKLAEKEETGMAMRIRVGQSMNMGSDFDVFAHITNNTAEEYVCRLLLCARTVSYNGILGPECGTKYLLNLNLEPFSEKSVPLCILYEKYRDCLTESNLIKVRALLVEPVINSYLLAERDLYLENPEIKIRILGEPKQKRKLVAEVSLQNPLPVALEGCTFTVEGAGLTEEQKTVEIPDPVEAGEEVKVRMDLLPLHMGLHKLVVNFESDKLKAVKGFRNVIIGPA

[2] = target: T2, TG2 (transglutaminase 2), His6-tagged (Homo sapiens, UniProt P21980 1-687); assay: pull-down
T2 sequence: T1 sequence

B1: 43-mer RNA 3' End Biotin (structured_RNA)
RNA: CCUGGUUUUUAAGGAGUGUCGCCAGAGUGCCGCGAAUGAAAAAC
Work on B1 yielded a Kd [1] of 88 nM.

B2: poly(dG) 3' End Biotin (ssDNA)
DNA: GGGGGGAGGGGGGAGGGGGGAGGGGGGAGGGGGGAGGGGGGAGGGGGGA
B2: binds [2].

B3: poly(dA) 3' End Biotin (ssDNA)
DNA: AAAAAAAAAAAAAAAAAAAAAAAAAAAAAAAAAAAAAAAAAAAAAAAAA
B3: no binding [2].
